Holding throughout (assay): EMSA
In series [1] the target is PRC2-AEBP2 (PRC2.2, 5-mer) (Homo sapiens, UniProt Q15910-2;O75530;Q15022;Q09028;Q6ZN18 1-751;1-441;1-739;1-425;1-517).
In series [2] the target is T1, PRC2-PHF19 (PRC2.1, 5-mer) (Homo sapiens, UniProt Q15910-2;O75530;Q15022;Q09028;Q5T6S3 1-751;1-441;1-739;1-425;1-580).
Series [3] concerns the target T1, PRC2-PHF19 (PRC2.1, 5-mer). The source holds these as a separate data set.

B1: 36 bp LHX6 (dsDNA)
DNA 1: TCCGCCCGCTCGACGCGCGCCGGGAAATTGAAGCGG
DNA 2: CCGCTTCAATTTCCCGGCGCGCGTCGAGCGGGCGGA
For the molecule B1, in series [1], the binding result is listed as “no binding”.

B2: 96 bp ATrich (dsDNA)
DNA 1: TATATTTTATATATATATAAATTAATATATAATTATATTATATTAAAATTAATATTATATTTAAATTATTATATATATATAAATAATTTAATTATA
DNA 2: TATAATTAAATTATTTATATATATATAATAATTTAAATATAATATTAATTTTAATATAATATAATTATATATTAATTTATATATATATAAAATATA
For the molecule B2, in series [2], the binding result was “binds”.

B3: 24 bp ATrich (dsDNA)
DNA 1: TATATAATTATATTATATTAAAAT
DNA 2: ATTTTAATATAATATAATTATATA
Regarding B3, in series [1], the binding result is on record as “no binding”. In addition, the binding signal in series [3] is ~5 fold weaker than 24 bp LHX6.

B4: 48 bp LHX6 (dsDNA)
DNA 1: GCGCTAGGAGCATCCGCCCGCTCGACGCGCGCCGGGAAATTGAAGCGG
DNA 2: CCGCTTCAATTTCCCGGCGCGCGTCGAGCGGGCGGATGCTCCTAGCGC
Consider B4, for which the binding result in series [1] is “no binding”.

B5: 96 bp (dsDNA)
DNA 1: TGAATTAGTGTCAATATCCCTACTTCAATTTCCTAGTATATATTAAGTAGGTAGATGCTCCTAGTACTCTGGGTTTTATTTTCTCAACCACCACCA
DNA 2: TGGTGGTGGTTGAGAAAATAAAACCCAGAGTACTAGGAGCATCTACCTACTTAATATATACTAGGAAATTGAAGTAGGGATATTGACACTAATTCA
In the case of B5, the binding result in series [2] is “binds”.

B6: 24 bp LHX6 (dsDNA)
DNA 1: ACGCGCGCCGGGAAATTGAAGCGG
DNA 2: CCGCTTCAATTTCCCGGCGCGCGT
With B6, the binding result in series [1] is reported as “no binding”. For the same molecule, the binding signal in series [3] is ~5 fold tighter than 24 bp ATrich; weaker than 48 bp.

B7: 48 bp ATrich (dsDNA)
DNA 1: ATATTTTATATATATATAAATTAATATATAATTATATTATATTAAAAT
DNA 2: ATTTTAATATAATATAATTATATATTAATTTATATATATATAAAATAT
On to B7, for which the binding result in series [1] is reported as “no binding”.

B8: 36 bp ATrich (dsDNA)
DNA 1: TATATAAATTAATATATAATTATATTATATTAAAAT
DNA 2: ATTTTAATATAATATAATTATATATTAATTTATATA
B8: the binding result in series [1] was “no binding”.

B9: 12 bp GC (dsDNA)
DNA 1: GGGCGGCCGCCC
DNA 2: GGGCGGCCGCCC
Turning to B9, the binding result in series [2] is recorded as “no binding”.

Source of the values: PMC7867654.
